Reference: publication PMC4041322, “Differences in the intrinsic immunogenicity and allergenicity of Bet v 1 and related food allergens revealed by site-directed mutagenesis” (Allergy, 2013)
Residue numbers refer to the chain shown, from its start. Numbers in names are those of the source. Blank lines part the entries; values can stand above or below the molecule they belong to.

Assays:
[1] = SEC; high-performance size-exclusion chromatography (HPSEC) of the purified recombinant proteins; fractions of monomers, dimers, tri-/tetramers and high MW aggregates; details in the online Supporting Information
rCor a 1.0401 (hazelnut) = assay: as above
rMal d 1.0108 (apple) = assay: as above
[2] = target: the molecule itself; assay: as above

Molecule: rCor a 1.0401
- percent high MW aggregates [1]: 9%

- percent dimers (rCor a 1.0401 (hazelnut)): 28%
- percent monomers (rCor a 1.0401 (hazelnut)): 45%
- percent tri-/tetramers (rCor a 1.0401 (hazelnut)): 18%
Molecule: rCor a 1.0401 (natural protein)

Molecule: rMal d 1.0108
- percent high MW aggregates [1]: 2%

Molecule: Mal d 1 C107S
- percent high MW aggregates [1]: <0.5%

- percent dimers (rMal d 1.0108 (apple)): 34%
- percent monomers (rMal d 1.0108 (apple)): 56%
- percent tri-/tetramers (rMal d 1.0108 (apple)): 8%
Molecule: rMal d 1.0108 (natural protein)

B1: Mal d 1 C107S, I113K (natural protein)
chain: GVYTFENEFTSEIPPSRLFKAFVLDADNLIPKIAPQAIKQAEILEGNGGPGTIKKITFGEGSQYGYVKHRIDSIDEASYSYSYTLIEGDALTDTIEKISYETKLVASGSGSTKKSISHYHTKGNIEIKEEHVKAGKEKAHGLFKLIESYLKDHPDAYN
- percent monomers [2]: > 99%

B2: Mal d 1 C107S (natural protein)
chain: B1 chain with K113I
- percent monomers [2]: > 98%

B3: Cor a 1 C4,82,160S (natural protein)
chain: GVFSYEDEATSVIPPARLFKSFVLDADNLIPKVAPQHFTSAENLEGNGGPGTIKKITFAEGNEFKYMKHKVEEIDHANFKYSYSIIEGGPLGHTLEKISYEIKMAAAPHGGGSILKITSKYHTKGNASINEEEIKAGKEKAAGLFKAVEAYLLAHPDAYS
- percent monomers [2]: 93%

B4: Cor a 1 C4,82,160S, L115K (natural protein)
chain: B3 chain with L115K
- percent monomers [2]: > 99%
